± gives the uncertainty stated by the source.
Experiment: self-splicing fitness, log relative to wild type (ln ratio); higher = more splicing; Tetrahymena group I intron in knt gene, E. coli kanamycin selection, DiMSum; sequences stand for … in CUCUCU…GGAGGGAAAAGUUAUCAGGCAUGCACCUGGUAGCUAGUCUUUAAACCAAUAGAUUGCAUCGGUUUAAAAGGCAAGACCGUCAAAUUGCGGGAAAGGGGUCAACAGCCGUUCAGUACCAAGUCUCAGGGGAAACUUUGAGAUGGCCUUGCAAAGGGUAUGGUAAUAAGCUGACGGACAUGGUCCUAACCACGCAGCCAAGUCCUAAGUCAACAGAUCUUCUGUUGAUAUGGAUGCAGUUCACAGACUAAAUGUCGGUCGGGGAAGAUGUAUUCUUCUCAUAAGAUAUAGUCGGACCUCUCCUUAAUGGGAGCUAGCGGAUGAAGUGAUGCAACACUGGAGCCGCUGGGAACUAAUUUGUAUGCGAAAGUAUAUUGAUUAGUUUUGGAGUACUCGUGGUCG
In short: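 Library with all eight P1ex-region intron nucleotides randomised, intron inside the knt kanamycin-resistance gene on pET-22b(+), in E. coli BL21(DE3). Cells grew overnight at 37°C or 30°C on LB agar with or without 25 μg/mL kanamycin (plus 100 μg/mL carbenicillin, 50 μM IPTG, 0.2% rhamnose), in six replicate transformations. Pooled colonies were amplicon-sequenced on Illumina HiSeq 2500. DiMSum fitness is the error-weighted combination of wild-type-normalised replicate fold changes, kanamycin versus none.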

Row | Sequence | self-splicing fitness (ln) (30 °C) | self-splicing fitness (ln) (37 °C)
1 | GGAAAGCAAUAUUACGCGUC | -3.58 ± 0.22 | -2.89 ± 0.23
2 | AAUAAGCAAUAUUACGCACC | -0.414 ± 0.13 | 0.346 ± 0.13
3 | CUGCAGCAAUAUUACGCCUC | -4.25 ± 0.42 | -2.16 ± 0.5
4 | GUCUAGCAAUAUUACGUUAG | -2.42 ± 0.16 | -2.28 ± 0.21
5 | GAGGAGCAAUAUUACGCAAC | -2.75 ± 0.38 | –
6 | UAUAAGCAAUAUUACGGAGG | -2.6 ± 0.28 | -1.67 ± 0.19
7 | CAAGAGCAAUAUUACGUAGC | – | -1.86 ± 0.43
8 | CGAAAGCAAUAUUACGUGCA | -2.12 ± 0.12 | -1.13 ± 0.12
9 | CGGUAGCAAUAUUACGACAU | -2.405 ± 0.019 | -1.38 ± 0.035
10 | GUUUAGCAAUAUUACGUUAC | -4.44 ± 0.28 | -2.33 ± 0.18
11 | AAGAAGCAAUAUUACGGUUG | -2.72 ± 0.092 | -1.32 ± 0.11
12 | ACGCAGCAAUAUUACGGGGU | -4.68 ± 0.22 | -2.34 ± 0.12
13 | ACGCAGCAAUAUUACGUUCA | -1.96 ± 0.11 | -0.844 ± 0.094
14 | UACAAGCAAUAUUACGGCCC | -1.69 ± 0.31 | -1.35 ± 0.44
15 | UUAGAGCAAUAUUACGCUGC | – | -2.29 ± 0.37
16 | AUUUAGCAAUAUUACGCGUU | -2.01 ± 0.2 | -1.3 ± 0.19
17 | ACGUAGCAAUAUUACGGAGC | -3.42 ± 0.22 | -2.39 ± 0.26
18 | AUGGAGCAAUAUUACGGGCU | – | -1.55 ± 0.41
19 | GGUGAGCAAUAUUACGUAGC | -2.64 ± 0.3 | -1.27 ± 0.29
20 | CCUCAGCAAUAUUACGCUAU | -4.26 ± 0.43 | -2.22 ± 0.28
21 | CUCUAGCAAUAUUACGACUG | -1.68 ± 0.15 | -0.621 ± 0.18
22 | CAAGAGCAAUAUUACGAACG | -0.336 ± 0.063 | 0.335 ± 0.079
23 | GUCUAGCAAUAUUACGACUG | -2.39 ± 0.23 | -2.73 ± 0.31
24 | CCAAAGCAAUAUUACGGAGA | -4.23 ± 0.42 | -1.92 ± 0.23

Row | Sequence | self-splicing fitness (ln) (30 °C) | self-splicing fitness (ln) (37 °C)
25 | CAUAAGCAAUAUUACGGCUC | -2.88 ± 0.44 | -1.88 ± 0.43
26 | GAAAAGCAAUAUUACGGCGU | -0.208 ± 0.095 | 0.24 ± 0.11
27 | AAGAAGCAAUAUUACGGGAA | -1.79 ± 0.14 | -1.85 ± 0.13
28 | CAUCAGCAAUAUUACGGCAC | -3.89 ± 0.24 | -2.56 ± 0.24
29 | ACGUAGCAAUAUUACGGGGA | -1.93 ± 0.1 | -1.83 ± 0.099
30 | CACCAGCAAUAUUACGCUGA | -3.31 ± 0.17 | -2.68 ± 0.15
31 | GCCGAGCAAUAUUACGAUUG | -2.48 ± 0.41 | -2.24 ± 0.47
32 | CCCUAGCAAUAUUACGGGUA | -2.41 ± 0.14 | -3.01 ± 0.19
33 | ACCGAGCAAUAUUACGUAAU | -3.19 ± 0.12 | -1.54 ± 0.13
34 | CCUAAGCAAUAUUACGUUUG | -4.59 ± 0.18 | -3.16 ± 0.16
35 | GCGUAGCAAUAUUACGCAGC | -3.61 ± 0.47 | -2.75 ± 0.38
36 | AGUGAGCAAUAUUACGAUAG | -2.34 ± 0.17 | -2.18 ± 0.34
37 | AUCGAGCAAUAUUACGUUUA | -2.49 ± 0.29 | -2.26 ± 0.37
38 | UUCUAGCAAUAUUACGUGGU | -4.03 ± 0.34 | -0.962 ± 0.18
39 | AAGCAGCAAUAUUACGGACU | -0.985 ± 0.078 | -0.121 ± 0.11
40 | CGUAAGCAAUAUUACGACCG | -0.867 ± 0.1 | -0.46 ± 0.19
41 | GAAGAGCAAUAUUACGUCUG | -2.34 ± 0.14 | -1.76 ± 0.16
42 | AGCAAGCAAUAUUACGCGAC | -2.95 ± 0.25 | -2.35 ± 0.26
43 | CCUAAGCAAUAUUACGAUGC | -3.49 ± 0.17 | -1.88 ± 0.16
44 | GUUAAGCAAUAUUACGCAGA | -2.33 ± 0.14 | -2.85 ± 0.14
45 | UCAUAGCAAUAUUACGUGUU | -3.81 ± 0.14 | -1.57 ± 0.1
46 | UGAAAGCAAUAUUACGGAUG | -1.05 ± 0.09 | -0.581 ± 0.11
47 | UCCGAGCAAUAUUACGUUCA | -2.55 ± 0.2 | -3.16 ± 0.4
48 | GUUAAGCAAUAUUACGCACU | -0.8 ± 0.22 | -1.17 ± 0.23
